Experimental findings from the NTF2 design screens of Basanta et al. (2020) are described below.

The data set in a line: protease stability score; higher = more stable; yeast display proteolysis, trypsin and chymotrypsin.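 Also: log10 excess protease needed over predicted unfolded state with 0 meaning unfolded.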
Turning to “DERQLDLLRQFLHAVQHGDEDRLKELADPNAKFTVGDKTIHGMNTFARTVKRRRDQARFQYNVKSMEADGDKMEVRIQLHVDVNGRPINVEFTARAHVDGDKLKSLELRIPEEVLKKQES”, the protease stability score is 0.037.

The sequence “DERQLKILVRILNAIHEGDPDTVKQLVDPNARVVIGDKVLHGMDEVRDTLHKWQEEQEVDLKDYRDNVHNGKADITAKAKVNQDGTPDHIRFKATAEFRNGRAKEVRINHDK” returned a protease stability score of 1.09.

As for “DERQNERFETLVKAIEEGDEDEAREQMDPNVRIEVGDKVIHGMDEFADTVRRTREELRVEFKIKRLRIKNGQVDVEMHVTFDHNGEPETARMVIKVNAHNGKIKNVVMRIHK”, the protease stability score turned out to be 1.6. “DERQNKEAFQRVAENITTNNPDEIMKQADPNVRFKYGDKEVHGRENVRDIVKEFNERVDRVQIDHVNVQGDKVNANATADVNGRKHRFQIHAVIKNGRLKFMQIHDQ” displayed a protease stability score of 1.09. “DERQNSQLHRQIEQAKQGDEEKVRQQMDENARARYGDKEVHGRTELARQQVRQWNEAKIDIEFKRVSAHENEIRVNVVMQFDVDGRPNRSTWTFKVRFHNGTIKQINAEIDPDEWDTLLK” returned a protease stability score of 0.506. Consider “DERQRSRAEEFMKNYQTGNEQNLDKLFDKNAKVHVGDKVVHGREQIREQNRREKEHLRFKIRHMDVEVRNGHVSVQVRMEREHNGHPQTVSVQFRNEQHNGQIKRFEREEQQ”, for which the protease stability score stood at 0.258.

“DERQVERIDRHLKALEHGDEKTLVEMIDPNAHFSVGDKEIHGREEYAHQQRRRVKESRFQVTIKDVQVNGDTVHIKYTSDQKHNGQPREDSNVMVMDATGERIESAKVTKDQ” yielded a protease stability score of -0.418.

Consider “DERQVKEIALEAAKAYISGNKEKLKKLGKEDVELEAGSHKYKGVEQMATVVEQFKKYGVELQITDVKVDGDKVKMRIQVHAGGTTWEFTMEIQVDGGRVDKMTIHLSEEMVKRIQKG”, for which the protease stability score was 1.02. For “DERRLEEVARHIRRGDKKHLNRLADPNAQLQYGNQRYTGRERVQTFWRQMITRADHLRVQSVTIHNGRIDAKFEMRVNGNKVEYRLKVQIHNGKAQNVQVNYRDEEDEKRMEENLG”, the protease stability score was 0.183. The result for “DERRLEQQQREYLKVLNTGNPDEMNELFDENASWQVGDKRYTGREEIERKLRELHNRVDQVRLDSYEVEPGRIKIDFQLDVNGVKVRITIILHYHNGRLQEVKMDVTDPEQWKHMQK” reads -0.011; that for “DERRQAQQFADTFDDNMQENNEEEVVKMADPNAELTVGDKEYHGREEIQKWIKQIHDKVDHLEIHIKSVDVRNGRVTIRARVRVEHNGRQKTMSVDIKAEQKNGRFIIKTMTMG”, 1.47. “DERRQQEVLKRFIDALQTGDPQKLKELADPNAQVNVGDKTFHGRDELVRQVEDEKRRIDEFHVVSIENHGDHVTARFRKESDGHQTEFVMKAYVHNGKVQSVKIDSS” returned a protease stability score of 0.201. Take “DERTLEQLLQDFINNMQTGDHQSLKDLLDENARVNIGDKTLSGRERVTTALKRLMRRVDHIQVDHYEVTNGEMNIDMQLEVNGVRVKVEVIIEVHNGKAKFIEFRVRNEEQWERVEG”: the protease stability score turned out to be 1.84. Turning to “DERTNTEMLKRLQHALQKNDPNEVRKLFDKDVQVQIGDKTLSGREQLLTEAEQRRKKIDDIEVTDMKSNPDHAVLSVVIKHNGRNRKVIYYIRWSNGKVRKVEERES”, the protease stability score stood at 1.5.

“DERVADQFVRALRTNDEEQLVRLMDEDAKMRVGEKEIHGRESVQTYLRRFAQQADHVDIHHVHIQGDKVSIDAVVEFNGKRVRFSMQFTVEGEKVKDVTIEARDEDDKRKLDEIFR” yielded a protease stability score of 1.79. In turn, “DERVAHEFVKAINKGDPDRLNELADKNARAEVGDKTFHGREKLEQMWKQWKKMVDHIHIRRVRVHNGHIHVDYVVNIDGQNNQLEIKAVVENGKVQEVKIQVTDEQNQDKLRKKMD” gave a protease stability score of 1.25. As to “DERVHEAFRRFVHALKEGDPDKIRENADEDVRIEVGDTEIQGRETLADRVEEEMKDMQIEYQIDSIKVHGNKAKVNMRVVKNHNGKPETRKFTVHVTFDNGKVKNVHVQDDR”, the protease stability score was found to be 1.3. The sequence “DERVIQEIRKMFNTNNFDSIAKNADKDATASIGNKHVHGKDNVKKLLDQFSRQIDHIQIDSVHVQGEKFVAQMKVNINGRERTAEMRMEVHNGKIQRISITFTDPSAQQTIKERME” displayed a protease stability score of 0.942. For the sequence “DERVKQQVETLERAVKHNDEDRLKELMDPNVRVRVGDRTVEGREEIAKQLVRTNNESRIEQKIDRVDVRGDKVHIDFQRREHHDGKPDSAKFNVLVKASNGRISEMEVHTNQ”, the protease stability score is -0.248. Sequence “DERVKRLVEQWFRAIEHGDPDQERKYFDPNARVEIGDRELNGREEIAHDLKRRHDEMHLHLKSVTIRVEGDHAEVNVRFQQDHNGKPEQKVQHVVLHFRGDYVRKMEVRDTK” returned a protease stability score of 1.15. The result for “DERVKSQATEFVTALKRNDEKRLMELADKDVSVRYGDKVVHGRERVRETARHITEESRVEYDTVRVDVQGNQANVEMEATFDHNGKPDRAKVNIQINFHNGKIKRVRIDKKP” reads 0.971; that for “DERVNREWEKFIHAFESGNESQLKRLMDKDVRLTVGDKQIEGREEMARQLKKRRDQSRVSINIESVQHDGDKVHIQFHVTNNKNGRPEKRTSVVTVEAHNGKLKEVNIDDKP”, 0.803. Sequence “DERWKEKFEQMVRDQKTGNEDEVAKYFDKNAEIKVGDQRFHGREQLREHLREQRRQMRVDIDIKHVDVKGNHITVEYEFRENHNGRPTRRKATLRAEYHNGKIQRMRIDKSG” displayed a protease stability score of 1.33. “DESAAERFDEFMRNVDTNNEHKLKEYADPNAKVQYGDKVLHGMDQIIHDIRRYMEEMRVRVDFKRYDAQGNELSFVADYSAEYNGEPVNDNVTFHVEAHNGKLKDMKINFDPKKDQDRRG” returned a protease stability score of 0.355. For “DESAHKLVHDMMDAIRQNNPERVEQLADPNVKIEYGDEVIQGRENVSTTMKEILEKQRVEYNFKRVDDHNGQVRADVEVEVEHNGEPHRDKLIVHAERHNGRIRYVELQHDG”, the protease stability score was -0.174. “DESAIHDVTNLLHNIQTGNPDEVDKHMDKHVKLNVGDKQISGRHRVRKKVEREKKEIRIHITVYHMRSRPGRVKIDATRENEHNGTPHSHRVIVDVRYDNGKIVNFRVEDVK” came in with a protease stability score of 0.366. Sequence “DESAIQHWRKMLEAVETGDEKKIQKQADPNAKFRVGDKVIHGREKYAKQKVQEARQIRVEIDIKDWENRPGRVNLDADARYEINGQPVTFRLEVEMRMHNGHFVSVDVQFDEEKWEKLHK” yielded a protease stability score of 0.037. Sequence “DESAKRKFEEFLEQIRHNNPDELKKMMDKDVRVNIGDKEINGRDQVKNELERFAKEQRFRIQVKHMSVSNGHLHAKVTVESTHNGSPDSDKFQVQANFQGDKFKEMQWDKDS” had a protease stability score of -0.189. Turning to “DESAQRLFEELLKAEHDGDRDRYQQLIDPNARIQVGDKSVKGRENIKHDVYRKHKEIRFSIQSMNNKVDGDKVKVDAKVVKEHDGRPDHAQITATVRARGDKVDEIRKEERK”, the protease stability score was -0.245. The result for “DESARDIASTIVSALHNNNPSQFSENLDKDATLNIGDKRIHGKERAEEHLSNQIKSLRIQFDDYQVRVHNGDVIINLDYKRDHNGEPRRVKQRVTIQIHNGRAQSVVVKETS” reads 0.365; that for “DESAVNNLVRLAKAWLRGDPKKIEHLVDKDAKAQIGDKTLHGREDLKDHADELRKDMTVDVKSVTNNNQNGQAVVDVKFEADRNGRPETHTLDAKATAHNGDIVDVKIHQDG”, -0.304; that for “DESDLSRQAKELIDNWETGNPDKMRKLMDENVTADVGDKRWHGRDEVVKWFKTLVDSIDHIEVREFKVSGNSVTFTAEANVNGKKATFQVVIEVHNGKIKDVKVNPDDLKQLEK”, 1.58. With “DESDMKRQAELFIRAVNTGDSDKVRKMADKDAHYDVGDKEIHGRENAARWVQRLREQADEVTVRDVRVQGEKVVIDVQADVNGRDVRMDLVIEFHNGKAQEVKMKHS”, the protease stability score worked out at 0.025. In turn, “DESDQDRFRKYLHQLQNGDEKKLRKNMDPNVKFEVGEKRYEGREEYAKKVRQEVEEMRFSFKIHDIEVHNGRVTVEFEVTYEHNGRPDHEHVRIEMEVHNGKIRSVRQESDK” gave a protease stability score of 0.043. The result for “DESDVEDLAKDAINAYQTGDPDQVARMADKDVKFTVGDHEVKGRNQLREHLQTIFHNVDHFDVTDMRINGNKARIHFTANVNGQTERNVMIIVAHNGKVRKMAIHSQ” reads -0.566; that for “DESDVERLTEIMEQNDFDQWVDQADKDAELVVGDKTLKGRETIQRWLKILSERVDHVSIKHIRNNGEEVDVKMTMIINGHRFEFVVNLTVHNGKITRFNFNFRDPDQLRRLHDQMS”, 1.25.

“DESDVKRAQDMVQNEQDGNEEEFDKLLDENVHFNVGDKRVNGRQQYLREVKKKRDQIRFSIKIDSVRARNGEATIDASARMVVNGQPKTYKFVIHVVQHNGDVRHVRISVPEEDVKRLKS” had a protease stability score of 0.212. The result for “DESEEKELEDILRRNDWERMSELAPPDVHATVGDTRLHGMEQVLSLFQTLNKRADQIHVKTLSVHNGQLHAVIVMQFNGRRVELHFDFEVKNGEFTSARVQARTEEEEKVMKEVLR” reads 1.05; that for “DESEHAKRVADKFRTAAKNGDPDQFTQLADPNAKIDIGDKDVSGRERLSEVVNELNKRIDHLEVKVRSVTQRGNHLVVKADVDAEHNGQEIRRKVDIVLRNNNGRVNLEMIRYR”, 1.03; that for “DESELEQLKRDWEHNDFDQLVRNMDKDVRLRIGNKQWHGHEQVQNFNRKMQEQIDHQHIRHIETRGNKIRVTYEIDINGQTMVVNAEAYIDNGRLKSMHVKFTSEEHRKVFEKAVD”, 0.746. “DESELERAIEMLEQNDPEEARRQVDKNAHMQVGEKSWTGREDVQTALVKHNEHVDHVEVKSVTKRGDKAEVKARVEFNGHNLKANFIVEVHNGKIKHVRVEVTDEEQKKLMRELLQ” displayed a protease stability score of -0.363. The result for “DESEMDTAVKIVEKGDPHQYKKLIDPNAKIIVGDKELHGREDVERLLHKLYEQADHVQINSITVQGDELRVDAQFKFNGRDIRMVVEFRVHNGRVKSAHIQATSEEQERELSKMIS” reads 1.35.

“DESEMQKAVEDIVKMLETGNETKFQENAPPDVRVDVGDKRFTGREDLRKWVHDVKERVDRIRVTHYSAHGEDVVIDVVYRHNGTNERANIVVHIHNGRMVQMKVQQS” came in with a protease stability score of 0.944.

For the sequence “DESEQASEVAHEMRHLYRKNDEDRFRELMDENVRARVGDKEYHGREDVLRMFQHEMRTADHMDVQVNDFRKEGDSIIIHADLKYVSNGNDRTRRLVFVLEVNGDTITLLQQQDQ”, the protease stability score is 0.096. “DESHARHLQRVFEKNDWQRLVELADEDVRIQIGNYDYHGRTAAQQMFEKLSKQIDHMEVKSMRVQGNKLQFDFEVNFNGKRNQAHFEMHFSNGRIKKIRFQFRDEEHEKDFDRHFS” returned a protease stability score of 1.46. In the case of “DESIMNMMHQLIDAMETNDPEKMKRLADKDATFVYGDKTVHGRHQAEEWIHKVKKHQRFRIDLRDVKADNGRVTVNAQIDQNHNGQPSQRTVDAKAEVSNGRVKHASVRRTS”, the protease stability score is -0.117.

Sequence “DESITEFASHWKEVLEHGDFRRMADNVDEDVKVRIGDKEIHGRTRYRRRAKKQEDEISFRLQDLHVEVQGDHIVAKFQATVKINGQPNTFTVNVVMRVHNGRIKYMEQQFSEEDEDKLTQ” showed a protease stability score of 0.534.
